The values that follow come from the nanobody polyreactivity screen of Harvey et al. (2022).

This series is described as follows: yeast display, Sf9 membrane polyspecificity reagent, FACS + sequencing; frameworks hold sequencing errors. The gist of the method:
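Using colony PCR, genes from sorted yeast display clones were amplified, then sequenced on MiSeq at 2 × 250 and filtered by CDR length. The clones had been stained with 10% biotinylated, detergent-solubilized Sf9 membrane reagent for 1 hour at 4 °C and sorted by FACS into low and high (top ~1%) gates on anti-HA and streptavidin fluorescence. Polyreactivity labels come from the gate of origin.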
On to “QVQLVESGGGLVQAGGSLRLSCAASGRTFENYAMGWYRQAPGKERELVAAISKSGGSTYYADSVKGRFTISRDNAKNTVYLQMNSLKPEDTAVYYCAARLPGYYGIGDYWGQGTQVTVSS”, for which the “polyreactivity (PSR sort gate)” value is given as “high polyreactivity”.
The result for “QVQLVESGGGLVQAGGSLRLSCAASGRTFERYAMGWYRQAPGKERELVAAISSGGSTNYADSVKGRFTISRDNAKNTVYLQMNSLKPEDTAVYYCNVDWAVKDPSYVSQGEGDYWGQGTQVTVSS” reads “low polyreactivity”.
As for “QVQLVESGGGLVQAGGSLRLSCAASGRTFERYAMGWYRQAPGKERELVAAITSGGSTYYADSVKGRFTISRDNAKNTVYLQMNSLKPEDTAVYYCATSNWWGYDYWGQGTQVTVSS”, the “polyreactivity (PSR sort gate)” value was “high polyreactivity”.
The result for “QVQLVESGGGLVQAGGSLRLSCAASGRTFETNAMGWYRQAPGKERELVAAISRSGGSTRYADSVKGRFTISRDNAKNTVYLQMNSLKPEDTAVYYCAAETWYRGYKFDYWGQGTQVTVSS” reads “high polyreactivity”; that for “QVQLVESGGGLVQAGGSLRLSCAASGRTFEWYALGWYRQAPGKERELVAAIRSGGGTNYADSVKGRFTISPDNAKNTVYLQMNSLKPEDTAVYYCAKEWAGGLYDYWGQGTQVTVTS”, “low polyreactivity”; that for “QVQLVESGGGLVQAGGSLRLSCAASGRTFFDYAMGWYRQAPGKERELVAAINWSGGRTYYADSVKGRFTISRDNAKNTVYLQMNTLKPEDTAVYYCAKPFSSNSWSHGYWGQGTQVTVSS”, “low polyreactivity”.
Turning to “QVQLVESGGGLVQAGGSLRLSCAASGRTFFDYTMGWYRPAPGKERELVAAITGGDGSTYYADSVKGRFTISRDNAKNTVYLQMNSLKPEDTAVYYCAASVWYNPMDYWGQVTQVTVSS”, the “polyreactivity (PSR sort gate)” value is recorded as “low polyreactivity”.
In the case of “QVQLVESGGGLVQAGGSLRLSCAASGRTFFEYAMGWYRQAPGKEMDLVAIITNGATTNYADSVKGRFTISRDNAKNTVYLQMNSLKPEDTAVYYCAVAKWQPRRRKYYYWGQGTQVTVSS”, the “polyreactivity (PSR sort gate)” value is given as “high polyreactivity”.
To “QVQLVESGGGLVQAGGSLRLSCAASGRTFFGYAMGWYRQAPGKERELVATISGSGASTYYADSVKGRFTISRDNAKNTVYLQMNSLKPEDTAVYYCAARYVTTRHSRYYYWGQGTQVTVSS” belongs “high polyreactivity”; to “QVQLVESGGGLVQAGGSLRLSCAASGRTFFIYAMGWYRQAPGKERELVAAIRWRGGSTYYADSVKGRFTISRDNAKNTVYLQMNSLKPEDTAVYYCAASTRQARYEDYYWGQGTQVTVSS”, “high polyreactivity”; to “QVQLVESGGGLVQAGGSLRLSCAASGRTFFIYAMGWYRQAPGKERELVAAISNGGSTNYADSVKGRFTISRDNAKNPVYLQLNSLKPEDTAVYYCAAQYIGNLRGVFHYEFDWGQGTQVSVSS”, “high polyreactivity”.
To “QVQLVESGGGLVQAGGSLRLSCAASGRTFFLNTMGWYRQAPGKERELGAAINWSDGGTYYADSVKGRFTISRDIAKNTVYLQMNSLKPEDTAVYYCAADVYWYYGAPELWYRFDYWGQGTQVTVSS” belongs “low polyreactivity”.
On to “QVQLVESGGGLVQAGGSLRLSCAASGRTFFMYAMGRYRQAPGKERELVAAISWGGVSTYYADSVKGRFTISRDNAKNTVYLQMNSLKPEDTAVYYCNAEYYYPRGRYWYDYWGQGTQVTVSS”, for which the “polyreactivity (PSR sort gate)” value is “high polyreactivity”.
Regarding “QVQLVESGGGLVQAGGSLRLSCAASGRTFFPNAMGWSRQAPGKERELVASITSRGGGTYYADSVKGRFTISRDNAKKTVYLQMNSLKPEDTAVYYCAADRYYFSPGYNWWSEGYDYWGQGTQVTVSS”, the “polyreactivity (PSR sort gate)” value is listed as “low polyreactivity”.
To “QVQLVESGGGLVQAGGSLRLSCAASGRTFFPNAMGWYRPAPAKERELVAAITNGDSTHYADSVKGRFTISRDNAKNTVYLQMNSLKPEDTAVYYCAAEDHYEGYGGYYWGQGTQVTVSS” belongs “low polyreactivity”.
Take “QVQLVESGGGLVQAGGSLRLSCAASGRTFFRNAMGWDRQEPGSERELVAGISRSGGSTYYADSVKGRFTISRDNAKNTGYLQMNSLKPEDTAVYYCAAALYPYPGYEYWGQGTQVTVSS”: the “polyreactivity (PSR sort gate)” value is given as “high polyreactivity”.
For the sequence “QVQLVESGGGLVQAGGSLRLSCAASGRTFFRNAMGWYRQAPGKERELVAAISSSGGSTYADSVKGRFTISRDNAKNTVYLQMNSLKPEDTAVYYCAATVRGKRSTYDYWGQGTQVTVSS”, the “polyreactivity (PSR sort gate)” value is “high polyreactivity”.
“QVQLVESGGGLVQAGGSLRLSCAASGRTFFRYAMGWYRQAPGKERELVAAITRGGSTNYADSVKGRFTISRDNAKNTVYLQMNSLKPEDTAVYYCAKTTFSYRGHYYWGQGTQVTVSS”: the “polyreactivity (PSR sort gate)” value was “high polyreactivity”.
Consider “QVQLVESGGGLVQAGGSLRLSCAASGRTFFSNAMGWYRPAPGKERELVAAISNGDNTYYADSVKGRFTISRDNAKNTVYLQMNSLKPEDTAVYYCAADQYWSWIYYPVVEYDYWGQGTQVTVSS”, for which the “polyreactivity (PSR sort gate)” value is reported as “low polyreactivity”.
To “QVQLVESGGGLVQAGGSLRLSCAASGRTFFSYAMGWYRQAPGKEMELVAAISGSGGSTYYADSVKGRFTISRDNAKNTVYLQMNSLKPEDTAVYYCNAYQTTRGLDYWGQGTQVTVSS” belongs “low polyreactivity”; to “QVQLVESGGGLVQAGGSLRLSCAASGRTFFVNAMGWYRQAPGKERELVATITFSGDSTYYADSVKGRFTISRDNAKNTVYLQMNSLKPEDTAVYYCAVRWPSARIPVKLDYWGQGTQVTVSS”, “high polyreactivity”; to “QVQLVESGGGLVQAGGSLRLSCAASGRTFFVYAMGWYRQAPGKERELVASIRWRGSTYYADSVKGRFTISRDNAKNTVYLKMNSLKPEDTAVYYCAARYPYELGFDYWGQGTQVTVSS”, “low polyreactivity”.
For the sequence “QVQLVESGGGLVQAGGSLRLSCAASGRTFFVYAMGWYRQAPGKERELVASITLSRGSTYYADSVKGRFTISRDNAKNTCYLQMNSLKPEDTAVYYCSKGWSRDNDREREDEYWGQGTQVTVSS”, the “polyreactivity (PSR sort gate)” value was “low polyreactivity”.
The result for “QVQLVESGGGLVQAGGSLRLSCAASGRTFFWYAMGWYRQAPGKEREFVAAITWRTGSTYYADSVKGRFTISRDNAKNTVYLQMNSLKPEDTAVYYCAAEYPWSYATYYYWGQGTQVTVSS” reads “high polyreactivity”; that for “QVQLVESGGGLVQAGGSLRLSCAASGRTFFYYAMGWYRQAPGKERELFATITKRGGSTYYADSVKGRFTISRDNAKNTVYLQMNSLKPEDTAVYYCAATYYRQGRRYLGYDYWGQGTQVTVSS”, “high polyreactivity”.
Take “QVQLVESGGGLVQAGGSLRLSCAASGRTFFYYAMGWYRQAPGKERELVAAISTNGGSTYYADSVKGRFTISRDNAKNTVYLQMNSMKPDDTAVYYCNTYAKPHRSGGGLGGHYYWGQGTQVTVSS”: the “polyreactivity (PSR sort gate)” value is given as “low polyreactivity”.
Take “QVQLVESGGGLVQAGGSLRLSCAASGRTFFYYSMGWYRQAPGKERELVATITKRGGSTYYADSVKGRFTISRDNAKNTVYLQMNSLKPEDTAVYYCNATLGRTTAVFKYYWGQGTQVTVSS”: the “polyreactivity (PSR sort gate)” value is “high polyreactivity”.
For the sequence “QVQLVESGGGLVQAGGSLRLSCAASGRTFGANAMGWYRQAPGKERELVAGITSSGGSTSYADSVKGRFTISRDNAKNTVYLQMNSLKPEDTAVYYCAKDVYQHIFDVILGGYDSWGQGTQVTVSS”, the “polyreactivity (PSR sort gate)” value is “low polyreactivity”.
To “QVQLVESGGGLVQAGGSLRLSCAASGRTFGFNVMGRYRQAPGKERELVAAISWSGGSTYYADSVKGRFTISRDNAKNTVYLQMTSLKPEDTAVYYCNKRYVHRYGYWGQGTQVTVSS” belongs “low polyreactivity”.
To “QVQLVESGGGLVQAGGSLRLSCAASGRTFGGNAMGWYRQAPGKERELVAAISLSGGTTYYADSVKGRFTISRDNAKNTVYLQMHSLKPEDTAVYYCAARFKSVDYVQYYYWGQGTQVTVSS” belongs “low polyreactivity”.
To “QVQLVESGGGLVQAGGSLRLSCAASGRTFGGNAMGWYRQAPGKERELVAAITGRGGSTFYADSVKGRFTISRDNAKNTVYLQMNSLKPEDTAVYYCAKQFKRGYGYDYWGQGTQVTVSS” belongs “low polyreactivity”; to “QVQLVESGGGLVQAGGSLRLSCAASGRTFGGNAMGWYRQAPGKERELVAAITGRGGSTYYADSVKGRFTISRDNAKNTVYLQMNSLKPEDTAVYYCAKQFKRGYGYDYWGQGTQVTVSS”, “low polyreactivity”.
As to “QVQLVESGGGLVQAGGSLRLSCAASGRTFGGNGMGWYRQAPGKERELVASISFSGGAGTYYADSVKGRFTISRDIAKNTVYLQMNSLKPEDTAVYYCAKRYVTPTYRRYYWGQGTQVTVSS”, the “polyreactivity (PSR sort gate)” value is reported as “high polyreactivity”.
To “QVQLVESGGGLVQAGGSLRLSCAASGRTFGGNVRVWYRQAPGKERELVAAISYSGRSTHYAESVKGRFTISRDNAKNTVILQMNSLKPEDTAVYYCNKPFPYYPDGPNGYDYWGQGTKVTVSS” belongs “low polyreactivity”.
The result for “QVQLVESGGGLVQAGGSLRLSCAASGRTFGGYALGWYRQAPGKARELVAAITWSDTSTYYADSVKGRFRFSRDNAKNTVYLQMNSLKPEDTAVYYCAAEQWYWWDDYWGKGTQVTVSS” reads “high polyreactivity”; that for “QVQLVESGGGLVQAGGSLRLSCAASGRTFGGYAMGWYRQAPGKERELVAAISSGGGTYADSVKGRFTISRDNAKNTVYLQMNSLKPEDTAVYYCAAGSRWYWAYKPTVHYYYWGQGTQVTVSS”, “high polyreactivity”; that for “QVQLVESGGGLVQAGGSLRLSCAASGRTFGGYAMGWYRQAPGKERELVAAISYSGGSTYYADSVKGRFTISRDNAKNTVYLQMNSLKPEDTAVYYCAADGYDAYYWGQGTQVTVSS”, “low polyreactivity”.
On to “QVQLVESGGGLVQAGGSLRLSCAASGRTFGHNAMGWYRQAPGKERELVAAISASGSNTYYADSVKGRFTISRDNAKNTVYLQMNSLKPEDTAVYYCAKQVYRTGQQSRYDYWGQGTQVTVSS”, for which the “polyreactivity (PSR sort gate)” value is “low polyreactivity”.
The result for “QVQLVESGGGLVQAGGSLRLSCAASGRTFGHYAMGWYRQAPGKERELVAAISCRGTSTYYADSVKGRFTISRDNAKNTVYLQMNSLKPEDTAVYYCAAVSVTSYRYDYWGQGTQVTVSS” reads “high polyreactivity”; that for “QVQLVESGGGLVQAGGSLRLSCAASGRTFGINAMGWYRQAPGKERELVADITDSGVSTYYADSVKGRFTISRDNAKNTVYLQMNSLKPEDTAVYYCNTGSYLFFLYGDDYWGQGTQVTVSS”, “low polyreactivity”.
On to “QVQLVESGGGLVQAGGSLRLSCAASGRTFGIYAMGRYRQAPGKERELVAAITGRGGSTHYADSVKGRFTISRDNAKNTVYLQMNSLKPEDTAVYYCAADYRYNRGITSNKDYDYWGQGTQVTVSS”, for which the “polyreactivity (PSR sort gate)” value is listed as “low polyreactivity”.
